Experimental data from patent US20140234872.

Assays:
[1] = tested on: His-GIV-CT (aa 1660-1870), wild-type, phosphorylated in vitro by recombinant EGFR kinase
[2] = tested on: His-GIV-CT Y1764F, phosphorylated in vitro by recombinant EGFR kinase
[3] = tested on: His-GIV-CT Y1798F, phosphorylated in vitro by recombinant EGFR kinase
Chain of His-GIV-CT Y1798F, phosphorylated in vitro by recombinant EGFR kinase (chain, as listed by the source Y1798F): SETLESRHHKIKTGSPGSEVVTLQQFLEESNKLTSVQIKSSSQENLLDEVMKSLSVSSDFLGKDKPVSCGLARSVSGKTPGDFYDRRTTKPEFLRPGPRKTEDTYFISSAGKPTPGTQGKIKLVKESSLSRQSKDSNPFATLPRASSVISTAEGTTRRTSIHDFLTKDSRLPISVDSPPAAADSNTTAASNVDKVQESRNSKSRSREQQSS

Chain of His-GIV-CT (aa 1660-1870), wild-type, phosphorylated in vitro by recombinant EGFR kinase (chain, as listed by the source): as the sequence (chain, as listed by the source Y1798F) above, with F139Y counted along it
Chain of His-GIV-CT Y1764F, phosphorylated in vitro by recombinant EGFR kinase (chain, as listed by the source Y1764F): as the sequence (chain, as listed by the source Y1798F) above, with Y105F, F139Y counted along it

| Substance | in vitro phosphatase assay: residual tyrosine phosphorylation of His-GIV-CT [1] | in vitro phosphatase assay: residual tyrosine phosphorylation of His-GIV-CT mutants [2] | in vitro phosphatase assay: residual tyrosine phosphorylation of His-GIV-CT mutants [3] |
| --- | --- | --- | --- |
| GST-SHP-1 (full length, wild-type, human) | SHP-1 WT, but not SHP-1 CS dephosphorylated tyrosine-phosphorylated His-GIV-CT in a dose-dependent manner | – | – |
| His-SHP-1 (human, recombinant) | SHP-1 efficiently dephosphorylated GIV in a dose-dependent manner | SHP-1 efficiently dephosphorylated both mutants | SHP-1 efficiently dephosphorylated both mutants |
| GST-SHP-1 C453S (catalytically inactive) | SHP-1 WT, but not SHP-1 CS dephosphorylated tyrosine-phosphorylated His-GIV-CT in a dose-dependent manner | – | – |
